In experiment [1] the target is T1, human serum albumin (human, UniProt P02768 25-609).
T1 construct: also called HSA; HAS
As to the kind of experiment: screening of the unselected immunized library on HSA.

In experiment [2] the target is T1, human serum albumin. As to the kind of experiment: phage display panning on HSA and screening.
Experiment [3] deals with T1, human serum albumin. In words: BIAcore, pH 7.4, monomeric 6xHis-tagged VNAR. In general terms: SPR reads the build-up and loss of mass on a sensor chip optically.
Experiment [4] has as its target T2, mouse serum albumin (mouse, UniProt P07724 25-608).
T2 construct: also called MSA
As to the kind of experiment: BIAcore, pH 7.4, monomeric 6xHis-tagged VNAR.

For experiment [5], the target named is T3, rat serum albumin (rat, UniProt P02770 25-608).
T3 construct: also called RSA
In words: BIAcore, pH 7.4, monomeric 6xHis-tagged VNAR.

Experiment [6] concerns the target T1, human serum albumin. In words: BIAcore, pH 6.0, monomeric 6xHis-tagged VNAR.
Experiment [7] deals with T2, mouse serum albumin. In words: BIAcore, pH 6.0, monomeric 6xHis-tagged VNAR.
The target of experiment [8] is T3, rat serum albumin. In words: BIAcore, pH 6.0, monomeric 6xHis-tagged VNAR.
The target of experiment [9] is T1, human serum albumin. As to the kind of experiment: phage and periprep ELISA on HSA; purified 6xHis-tagged VNAR. The protocol:
The resultant mutational phage display libraries were rescued and selected twice using Nunc Maxisorp immunotubes. Following each pan, two 96-well plates of individual colonies were picked with a QPix2 XT (Genetix, San Jose, Calif., USA). Binding as monoclonal phage and periprep was evaluated by ELISA. All samples were processed with a Perkin Elmer MiniTrak robotic liquid handling system (Waltham, Mass., USA).
In general terms: An ELISA detects its analyte on a solid surface through an enzyme-linked reagent.

Where a chain is given by its changes, count along the chain named.

T3 sequence (P02770 25-608 limits assumed): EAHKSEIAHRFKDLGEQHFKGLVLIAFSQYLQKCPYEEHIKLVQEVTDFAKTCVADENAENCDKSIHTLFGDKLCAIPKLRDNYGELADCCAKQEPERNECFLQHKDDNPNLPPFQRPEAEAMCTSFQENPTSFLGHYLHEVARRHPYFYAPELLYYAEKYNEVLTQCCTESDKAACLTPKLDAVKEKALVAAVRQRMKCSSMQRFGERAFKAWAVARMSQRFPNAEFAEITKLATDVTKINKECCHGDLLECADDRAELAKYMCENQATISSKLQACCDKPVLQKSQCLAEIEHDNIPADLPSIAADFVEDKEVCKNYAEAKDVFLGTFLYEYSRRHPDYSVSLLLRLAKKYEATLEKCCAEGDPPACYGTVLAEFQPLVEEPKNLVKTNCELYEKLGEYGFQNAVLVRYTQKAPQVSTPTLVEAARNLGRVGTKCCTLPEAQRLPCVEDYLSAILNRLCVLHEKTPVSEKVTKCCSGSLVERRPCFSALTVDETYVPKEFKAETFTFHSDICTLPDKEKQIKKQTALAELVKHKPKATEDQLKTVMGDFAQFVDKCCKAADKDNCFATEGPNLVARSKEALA
T2 sequence (P07724 25-608 limits assumed): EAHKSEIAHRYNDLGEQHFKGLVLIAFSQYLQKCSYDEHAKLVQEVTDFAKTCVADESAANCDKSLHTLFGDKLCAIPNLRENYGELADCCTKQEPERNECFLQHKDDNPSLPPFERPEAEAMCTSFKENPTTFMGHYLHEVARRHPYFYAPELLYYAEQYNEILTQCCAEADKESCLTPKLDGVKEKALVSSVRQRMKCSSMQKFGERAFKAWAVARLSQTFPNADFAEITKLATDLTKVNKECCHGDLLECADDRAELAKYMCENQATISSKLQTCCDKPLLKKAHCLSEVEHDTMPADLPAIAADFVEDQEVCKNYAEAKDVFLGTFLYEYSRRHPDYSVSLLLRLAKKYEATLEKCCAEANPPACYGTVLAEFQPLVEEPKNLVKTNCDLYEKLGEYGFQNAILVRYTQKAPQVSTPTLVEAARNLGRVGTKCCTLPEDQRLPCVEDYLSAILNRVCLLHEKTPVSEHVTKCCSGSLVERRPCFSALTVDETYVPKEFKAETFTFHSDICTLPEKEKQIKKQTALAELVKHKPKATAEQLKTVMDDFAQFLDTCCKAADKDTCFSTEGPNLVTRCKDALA

B1: SEQ ID NO 58 (VNAR)
VNAR: TRVDQTPRTATKETGESLTINCVLTDTSYPLYSTYWYRKNPGSSNKEQISISGRYVESVNKGTKSFSLRIKDLTVADSATYICRAYTPGREDYGAGTVLTVN
notes: clone name not tied to this number; one of the 13 entries may be a consensus
Turning to B1, the binding result in the experiment with human serum albumin [1] is reported as “binds”.

B2: SEQ ID NO 60 (VNAR)
VNAR: ASVNQTPRTATKETGESLTINCVLTGTSCSLYSTSWFRKNPGTTDWERISIGGRYVESVNKGAKSFSLRIKDLTVADSATYYCKAEKGRKGSAITSCRRSSYYDGAGTVLTVN
notes: as for B1
As to B2, the binding result with human serum albumin [1] is listed as “binds”.

B3: SEQ ID NO 57 (VNAR)
VNAR: AKVDQTPRTTTKETGESLTINCVLTETSYGLSSTSWFQKNPGTTDWERMSIGGRYVESVNTGAKSFSLRIKDLTVADSATYYCKAHAGYGVWNRGLQWRGYDQYDGAGTVLTVN
notes: as for B1
With B3, in the experiment with human serum albumin [1], the binding result was “binds”.

B4: SEQ ID NO 33 (VNAR)
VNAR: ARVDQTPRTATKETGESLTINCVLTDTSYPLYSTYWYRKNPGSSNKEQISISGRYVESVNKGTKSFSLRIKDLTVADSATYICRAMGTDSWTGDGAGTVLTVN
notes: clone name not tied to this number
Consider B4, for which, in the experiment with human serum albumin [2], the binding result is listed as “binds”.

B5: SEQ ID NO 50 (VNAR)
VNAR: B4 VNAR with R2S, D4N, Q48R
notes: as for B4
Regarding B5, the binding result with human serum albumin [2] is listed as “binds”.

B6: SEQ ID NO 61 (VNAR)
VNAR: B4 VNAR with A79G, A85S, M86I, G87T, D89H, T92S, V99A
notes: as for B1
Regarding B6, in the experiment with human serum albumin [1], the binding result was “binds”.

B7: SEQ ID NO 56 (VNAR)
VNAR: B4 VNAR with R2S, D4N, T27A, S50P, D89N, S90G
notes: as for B1
Consider B7, for which the binding result in the experiment with human serum albumin [1] is recorded as “binds”.

B8: SEQ ID NO 48 (VNAR)
VNAR: B4 VNAR with R2S, D4N, G87D, D89S, S90A, W91G, T92V, G93V
notes: as for B4
B8: the binding result with human serum albumin [2] is listed as “binds”.

B9: SEQ ID NO 35 (VNAR)
VNAR: B4 VNAR with A1T, D89N, V99A
notes: as for B4
Turning to B9, the binding result in the experiment with human serum albumin [2] was “binds”.

B10: SEQ ID NO 53 (VNAR)
VNAR: B4 VNAR with M86I, G87T, G93S, V99A
notes: as for B1
For B10, the binding result with human serum albumin [1] is on record as “binds”.

B11: SEQ ID NO 40 (VNAR)
VNAR: B4 VNAR with A1T, Q48R, D89N, V99A
notes: as for B4
On to B11, for which the binding result in the experiment with human serum albumin [2] is “binds”.

B12: SEQ ID NO 39 (VNAR)
VNAR: B4 VNAR with A1T, Q48R
notes: as for B4
Take B12: in the experiment with human serum albumin [2], the binding result was “binds”.

B13: SEQ ID NO 43 (VNAR)
VNAR: B4 VNAR with A1T, Q48R, V99A
notes: as for B4
With B13, the binding result in the experiment with human serum albumin [2] is recorded as “binds”.

B14: SEQ ID NO 42 (VNAR)
VNAR: B4 VNAR with A1T, S33R, D89N
notes: as for B4
Turning to B14, the binding result with human serum albumin [2] was “binds”.

B15: SEQ ID NO 62 (other)
chain: B4 VNAR with A1I, E16G, M86L, G87S, D89Y, S90M, W91E, T92A
notes: as for B1
As for B15, the binding result in the experiment with human serum albumin [1] is “binds”.

B16: SEQ ID NO 63 (VNAR)
VNAR: B4 VNAR with R2S, D4N, S50P, G87D, D89S, S90A, W91G, T92V, G93V
notes: as for B1
For B16, the binding result in the experiment with human serum albumin [1] is on record as “binds”.

B17: SEQ ID NO 38 (VNAR)
VNAR: B4 VNAR with A1T, S33R
notes: as for B4
Turning to B17, in the experiment with human serum albumin [2], the binding result was “binds”.

B18: SEQ ID NO 44 (VNAR)
VNAR: B4 VNAR with A1T, Q48R, D89N, S90I
notes: as for B4
Take B18: the binding result with human serum albumin [2] is “binds”.

B19: SEQ ID NO 59 (VNAR)
VNAR: B4 VNAR with T25A, M86S, G87D, T88I, D89A, S90M, W91G, G93Y, V99A
notes: as for B1
With B19, the binding result with human serum albumin [1] is “binds”.

B20: SEQ ID NO 55 (VNAR)
VNAR: B4 VNAR with S44P, Q48R, T88A, D89N, V99A
notes: as for B1
On to B20, for which the binding result in the experiment with human serum albumin [1] is given as “binds”.

B21: SEQ ID NO 49 (VNAR)
VNAR: B4 VNAR with R2K
notes: as for B4
Regarding B21, in the experiment with human serum albumin [2], the binding result is “binds”.

B22: SEQ ID NO 52 (VNAR)
VNAR: IRVDQTPRTATKETGESLTINCVLTGTVCGMYSTSWSRKNPGRADWERISIGGRYVESVNKGAKSFSLRIRDLTVADSATYCCSAESPPICTSQGIAAVTKYYDGAGTVLTVN
notes: as for B1
With B22, in the experiment with human serum albumin [1], the binding result is recorded as “binds”.

B23: huE06 v1.1 (VNAR)
VNAR: TRVDQSPSSLSASVGDRVTITCVLTDTSYPLYSTYWYQQKPGSSNKEQISISGRYSESVNKGTKSFTLTISSLQPEDFATYYCRAMGTNIWTGDGAGTKVEIK
notes: Humanized VNAR, tested as monomeric 6xHis-tagged protein; also called humanized E06 v1.1; not shown: 6xHis tag
Regarding B23, the “Fold change from E06” value with human serum albumin [3] came out at 84.9 fold; with mouse serum albumin [4] it was 59.4 fold; in the experiment with rat serum albumin [5] it was 52 fold; in the experiment with human serum albumin [6] it was 35.6 fold; with mouse serum albumin [7], 28.3 fold; with rat serum albumin [8], 29 fold. The equilibrium dissociation constant (Kd) was 16 nM with human serum albumin [3]; 49.2 nM with mouse serum albumin [4]; 75.3 nM with rat serum albumin [5]; 5.07 nM with human serum albumin [6]; 9.28 nM with mouse serum albumin [7]; 9.94 nM with rat serum albumin [8]. Moreover, the dissociation rate constant (koff) with human serum albumin [3] is 0.014 s⁻¹; in the experiment with mouse serum albumin [4], 0.0414 s⁻¹; with rat serum albumin [5], 0.0329 s⁻¹; in the experiment with human serum albumin [6] it was 0.0184 s⁻¹; in the experiment with mouse serum albumin [7], 0.0318 s⁻¹; with rat serum albumin [8], 0.031 s⁻¹. The on-rate constant (kon) with human serum albumin [3] was found to be 872000 M⁻¹ s⁻¹; with mouse serum albumin [4] it was 841000 M⁻¹ s⁻¹; in the experiment with rat serum albumin [5] it was 436000 M⁻¹ s⁻¹; in the experiment with human serum albumin [6], 3.62e+06 M⁻¹ s⁻¹; in the experiment with mouse serum albumin [7], 3.43e+06 M⁻¹ s⁻¹; with rat serum albumin [8] it was 3.12e+06 M⁻¹ s⁻¹.

B24: huE06 v1.10 (VNAR)
VNAR: B23 VNAR with Q38R, Q39K, K40N
notes: Humanized VNAR, tested as monomeric 6xHis-tagged protein; also called hE06v1.10; humanized E06 v1.10; not shown: 6xHis tag
Take B24: the “Fold change from E06” value in the experiment with human serum albumin [3] amounted to 33.9 fold; with mouse serum albumin [4], 28.1 fold; with rat serum albumin [5] it was 25.4 fold; with human serum albumin [6], 12.7 fold; in the experiment with mouse serum albumin [7], 12.2 fold; with rat serum albumin [8], 12.2 fold. Moreover, the Kd with human serum albumin [3] worked out at 6.4 nM; with mouse serum albumin [4], 23.2 nM; with rat serum albumin [5] it was 36.8 nM; in the experiment with human serum albumin [6], 1.81 nM; with mouse serum albumin [7] it was 3.98 nM; with rat serum albumin [8], 4.17 nM. Besides, the koff with human serum albumin [3] came out at 0.00357 s⁻¹; in the experiment with mouse serum albumin [4], 0.00959 s⁻¹; with rat serum albumin [5] it was 0.0165 s⁻¹; in the experiment with human serum albumin [6], 0.00637 s⁻¹; in the experiment with mouse serum albumin [7] it was 0.0125 s⁻¹; in the experiment with rat serum albumin [8] it was 0.0152 s⁻¹. Further, the on-rate constant (kon) came to 559000 M⁻¹ s⁻¹ with human serum albumin [3]; 412000 M⁻¹ s⁻¹ with mouse serum albumin [4]; 449000 M⁻¹ s⁻¹ with rat serum albumin [5]; 3.52e+06 M⁻¹ s⁻¹ in the experiment with human serum albumin [6]; 3.14e+06 M⁻¹ s⁻¹ with mouse serum albumin [7]; 3.65e+06 M⁻¹ s⁻¹ with rat serum albumin [8].

B25: BA11 (VNAR)
VNAR: B23 VNAR with Q38R, Q39K, K40N, F78S, G87S
notes: Variant of huE06 v1.10 from error-prone PCR
Consider B25, for which the binding result with human serum albumin [9] was “binds”.

B26: AC9 (VNAR)
VNAR: B23 VNAR with Q38R, Q39K, K40N, F66S
notes: as for B25
In the case of B26, the binding result with human serum albumin [9] is recorded as “binds”.

B27: AD4 (VNAR)
VNAR: B23 VNAR with Q38R, Q39K, K40N, I51M, G62S
notes: as for B25
With B27, the binding result with human serum albumin [9] is “binds”.

B28: BB10 (VNAR)
VNAR: B23 VNAR with Q38R, Q39K, K40N, I90F
notes: as for B25
As for B28, the binding result in the experiment with human serum albumin [9] is “binds”.

B29: AH7 (VNAR)
VNAR: B23 VNAR with S6T, Q38R, Q39K, K40N, F66S
notes: as for B25
For B29, in the experiment with human serum albumin [9], the binding result is “binds”.

B30: BC3 (VNAR)
VNAR: B23 VNAR with Q38R, Q39K, K40N, S44N
notes: as for B25
B30: the binding result with human serum albumin [9] is reported as “binds”.

B31: BB11 (VNAR)
VNAR: B23 VNAR with Q38R, Q39K, K40N, G87A
notes: as for B25
Regarding B31, the binding result with human serum albumin [9] is “binds”.

B32: AG11 (VNAR)
chain: B23 VNAR with Q38R, Q39K, K40N, I102T
notes: as for B25
Turning to B32, the binding result in the experiment with human serum albumin [9] was “binds”.

B33: SEQ ID NO 54 (VNAR)
VNAR: ARVDQTPRTATKETGESLTINCVLTDTSYPLYSTYWYRKNPGSSNKEQISISGRYVESVNKGTKSFSLRIKDLTVADSATYICRAYTIHIKLEQHGAGTVLTVN
notes: as for B1
Consider B33, for which the binding result with human serum albumin [1] was “binds”.

As a reminder, the Kd is the constant that tells how readily two partners part at equilibrium. High values mean a looser complex, low ones a tighter complex. One may read the koff as the first-order rate constant of dissociation. One may read the kon as a measure of how fast the partners come together.

For the origin of these results see US11692025 (UNIVERSITY COURT OF THE UNIVERSITY OF ABERDEEN, dated 2023).
